Holding throughout (format): binding
The test system of experiment [1] is ACLY pHis peptide. Briefly: BLI of pHis Fabs with phosphorylated ACLY peptide. To be noted: GpHAGAC motif. How it is done:
(§1) Next, we turned to further analyze the peptide selectivity using BLI experiments. Nine amino acid peptide sequences from proteins known to undergo histidine phosphorylation were selected and synthesized (SI Appendix, Table S2). The biotinylated peptides ACLY, NM23, SCS, and Common-His were chemically phosphorylated using phosphoramidate (8 h at 23 °C), and affinity-purified using immobilized 1-pHis IgGs or 3-pHis IgGs, as described above. BLI signal intensity was used to assess peptide binding to the Fabs. […]
(§2) The binding kinetics of pHis Fabs with the peptides (pTza and pHis) were evaluated with an Octet RED96e (FortéBio). […] The biotinylated pTza peptides or pHis peptides (20 nM) with and without phosphoramidate treatment were coated onto these streptavidin biosensors and analyzed for their binding to varying concentrations of the pHis Fabs with an association time of 120 s and dissociation time of 200 s. […] The data were analyzed using the Octet software (FortéBio) and the rates of association and dissociation were obtained by global fitting data to the 1:1 Langmuir interaction model. […]
(§3) 1H NMR of ACLYana peptide. A mixture of 5 mM ACLYana peptide and 250 mM phosphoramidate in 20 mM d18-Hepes, pH 8.0, 50 mM NaCl in D2O was incubated at 23 °C and monitored over the course of 29 h. […]

Experiment [2] concerns the target NM23 pHis peptide. The experiment can be described thus: BLI of pHis Fabs with phosphorylated NM23 peptide. How it is done: (§4) Next, we turned to further analyze the peptide selectivity using BLI experiments. Nine amino acid peptide sequences from proteins known to undergo histidine phosphorylation were selected and synthesized (SI Appendix, Table S2). The biotinylated peptides ACLY, NM23, SCS, and Common-His were chemically phosphorylated using phosphoramidate (8 h at 23 °C), and affinity-purified using immobilized 1-pHis IgGs or 3-pHis IgGs, as described above. BLI signal intensity was used to assess peptide binding to the Fabs. SC1-1, SC50-3, SC39-4, and SC56-2 had signal intensities in 0.5 to 1 nm for the association (SI Appendix, Fig. S10), whereas SC44-8 had maximum signal (2.0 nm) with ACLYana, which has GpHAGAG motif, and a signal of 0.5 nm for ACLY and SCS peptides, which have GpHAGAC and GpHAGAI motifs, respectively. However, there was no signal with NM23 and Common-His peptides, which lack this motif (SI Appendix, Fig. S10D). […] The binding kinetics of the pHis Fabs with this set of peptides indicate that the affinity values are similar for the pHis Fabs SC50-3, SC39-4, and SC56-2, consistent with them binding in a sequence-independent manner.
(§5) The binding kinetics of pHis Fabs with the peptides (pTza and pHis) were evaluated with an Octet RED96e (FortéBio). Streptavidin-coated biosensors (FortéBio) were presoaked in buffer containing 50 mM Hepes pH 8.0, 150 mM NaCl, 0.05% Tween-20, and 0.2% BSA for 15 min. The biotinylated pTza peptides or pHis peptides (20 nM) with and without phosphoramidate treatment were coated onto these streptavidin biosensors and analyzed for their binding to varying concentrations of the pHis Fabs with an association time of 120 s and dissociation time of 200 s. The entire set of experiments was repeated three times. The data were analyzed using the Octet software (FortéBio) and the rates of association and dissociation were obtained by global fitting data to the 1:1 Langmuir interaction model. […]
(§6) Peptides used in the DSF and BLI experiments were synthesized by the Salk Peptide Synthesis Core. These peptides were N-terminally biotinylated and C-terminally amidated. They were synthesized using standard Fmoc chemistry on a Gyros Protein Technologies Tribute peptide synthesizer with UV monitoring. […]
(§7) Phosphoramidation reaction. The small molecule phosphate donor phosphoramidate was used to phosphorylate the peptides containing His (Table S2). Phosphoramidate was synthesized based on Wei and Matthew’s method (2) and stored in a desiccator. 20 nanomoles of peptides were added to one micromole of the phosphoramidate in 50 mM Hepes pH 8.0 and 150 mM NaCl buffer. […]
as §3

In experiment [3] the target is Common-His pHis peptide. The experiment can be described thus: BLI of pHis Fabs with phosphorylated Common-His peptide. On the procedure:
as §4, §5, §6, §7, §3

Experiment [4] deals with SCS pHis peptide. Briefly: BLI of pHis Fabs with phosphorylated SCS peptide. To be noted: GpHAGAI motif. On the procedure:
as §1, §2, §3

Where [5] appears, read: BLI, phosphorylated, affinity-purified NM23 peptide, Table S7.
The mark [6] stands for this setting: BLI, phosphorylated, affinity-purified Common-His peptide, Table S7.

From article PMC8017925, “Structural basis for differential recognition of phosphohistidine-containing peptides by 1-pHis and 3-pHis monoclonal antibodies” (Proceedings of the National Academy of Sciences of the …, 2021) come the findings set out here.

B1: SC44-8: Fab of rabbit 3-pHis-specific monoclonal antibody with proclivity for GpHAGA motif (antibody, V domains shown)
VH: QSVKESGRGLVQPGGSLTLTCTASGFSIDSYGFSWVRQAPGKGLEHIGYLTAGGRAFYASWAKSRSTITRNTNENTVTLKMTSLTAADTATYFCAKLGSGNPVAIWGPGTLVTVSS
VL: QVLTQTPSFTSAAVGGTVTINCQSSQSVWRNKNLAWYQQKPGQPPKRLIYAIATLDSGVPSRFSGSGSGTQFTLTISDVQCDDAATYYCVGHYGSENDAYYAFGGGTEVVVK
Regarding B1, the “BLI signal with ACLY peptide” value in experiment [1] is reported as 0.5 nm. Moreover, the KD entry is listed as “No binding” in experiment [2] (BLI, biotinylated NM23 peptide phosphorylated with phosphoramidate (8 h at 23 °C), affinity-purified on 1-pHis or 3-pHis IgGs (cognate isomer), Table S7) and “No binding” in experiment [3] (BLI, biotinylated Common-His peptide phosphorylated with phosphoramidate (8 h at 23 °C), affinity-purified on 1-pHis or 3-pHis IgGs (cognate isomer), Table S7). Also, the ka entry in experiment [2] (setting [5]) and in experiment [3] (setting [6]) was “No binding” throughout. For the same molecule, the kd result in experiment [2] (setting [5]) and in experiment [3] (setting [6]) was “No binding” in each case. Besides, the “BLI signal with NM23 peptide” value in experiment [2] (phosphorylated NM23, lacks GpHAGA motif) is “no signal”. The “BLI signal with Common-His peptide” value in experiment [3] (phosphorylated Common-His, lacks GpHAGA motif) is reported as “no signal”. Also, the “BLI signal with SCS peptide” value in experiment [4] amounted to 0.5 nm.
